Usually Kd stands for the concentration at which binding is half-saturated. Read a low Kd as a tighter complex.

Kd data for 1 molecule are collected here from paper PMC6736635.

Common to all, as to test: fluorescence anisotropy
On the technique in general: Fluorescence polarisation rises when a labelled molecule tumbles more slowly, as on binding a larger partner.

For data set [1], the target named is T1, PRC2-AEBP2 (Homo sapiens, UniProt Q15910;Q15022;O75530;Q09028;Q6ZN18 1-746;1-739;1-441;1-425;1-517).
Data set [2] deals with T1, PRC2-AEBP2. This is another data set of the same source.
Data set [3] deals with PRC2-AEBP2 mt2 (Homo sapiens, UniProt Q15910;Q15022;O75530;Q09028;Q6ZN18 1-746;1-739;1-441;1-425;1-517, H129A;K156A;H158A;G159A;R161A;R306A).
Data set [4] addresses PRC2-MTF2 (Homo sapiens, UniProt Q15910;Q15022;O75530;Q09028;Q9Y483 1-746;1-739;1-441;1-425;1-593).
Data set [5] has as its target T1, PRC2-AEBP2. This is another data set of the same source.
Data set [6] concerns the target PRC2-AEBP2 mt3 (Homo sapiens, UniProt Q15910;Q15022;O75530;Q09028;Q6ZN18 1-746;1-739;1-441;1-425;1-517, R16A;K17A;R18A;K20A).
Data set [7] concerns the target PRC2-AEBP2 mt5 (Homo sapiens, UniProt Q15910;Q15022;O75530;Q09028;Q6ZN18 1-746;1-739;1-441;1-425;1-517, Y133A;T144A;F145A;Y153A;Y308A).
In data set [8] the target is PRC2-AEBP2 mt1 (Homo sapiens, UniProt Q15910;Q15022;O75530;Q09028;Q6ZN18 1-746;1-739;1-441;1-425;1-517, R27A;R31A;F165A;R355A).
The target in data set [9] is PRC2-PHF19 (Homo sapiens, UniProt Q15910;Q15022;O75530;Q09028;Q5T6S3 1-746;1-739;1-441;1-425;1-580).
The target of data set [10] is PRC2-MTF2-EPOP (Homo sapiens, UniProt Q15910;Q15022;O75530;Q09028;Q9Y483;A6NHQ4 1-746;1-739;1-441;1-425;1-593;1-379).
The target in data set [11] is PRC2-AEBP2 mt4 (Homo sapiens, UniProt Q15910;Q15022;O75530;Q09028;Q6ZN18 1-746;1-739;1-441;1-425;1-517, K656A).
Data set [12] deals with PRC2 core (EZH2-EED-SUZ12-RBBP4) (Homo sapiens, UniProt Q15910;Q15022;O75530;Q09028 1-746;1-739;1-441;1-425).

Where two headings read alike, the source gives them in different places.

PRC2 core (EZH2-EED-SUZ12-RBBP4), sequence (Q15910 whole entry, chain 1 of 4): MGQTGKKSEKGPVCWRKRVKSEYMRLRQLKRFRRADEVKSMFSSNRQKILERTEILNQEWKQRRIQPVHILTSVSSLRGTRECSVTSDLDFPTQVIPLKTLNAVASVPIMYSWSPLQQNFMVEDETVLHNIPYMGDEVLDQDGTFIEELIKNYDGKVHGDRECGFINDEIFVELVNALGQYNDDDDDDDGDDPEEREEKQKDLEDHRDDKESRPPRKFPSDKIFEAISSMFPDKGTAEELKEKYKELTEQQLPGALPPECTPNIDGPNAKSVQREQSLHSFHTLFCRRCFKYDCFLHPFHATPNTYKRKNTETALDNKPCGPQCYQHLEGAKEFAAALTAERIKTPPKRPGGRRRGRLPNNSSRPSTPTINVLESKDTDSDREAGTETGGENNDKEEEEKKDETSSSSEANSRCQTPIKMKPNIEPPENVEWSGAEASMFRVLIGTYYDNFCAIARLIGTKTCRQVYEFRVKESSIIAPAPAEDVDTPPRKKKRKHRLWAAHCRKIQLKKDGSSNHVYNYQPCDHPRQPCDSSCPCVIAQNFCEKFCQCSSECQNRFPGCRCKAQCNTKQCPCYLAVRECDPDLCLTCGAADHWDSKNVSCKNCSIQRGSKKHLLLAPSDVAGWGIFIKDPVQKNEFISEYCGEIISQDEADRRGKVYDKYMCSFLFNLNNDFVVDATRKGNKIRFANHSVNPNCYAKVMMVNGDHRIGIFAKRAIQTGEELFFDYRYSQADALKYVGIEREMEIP
PRC2 core (EZH2-EED-SUZ12-RBBP4), sequence (Q15022 whole entry, chain 2 of 4): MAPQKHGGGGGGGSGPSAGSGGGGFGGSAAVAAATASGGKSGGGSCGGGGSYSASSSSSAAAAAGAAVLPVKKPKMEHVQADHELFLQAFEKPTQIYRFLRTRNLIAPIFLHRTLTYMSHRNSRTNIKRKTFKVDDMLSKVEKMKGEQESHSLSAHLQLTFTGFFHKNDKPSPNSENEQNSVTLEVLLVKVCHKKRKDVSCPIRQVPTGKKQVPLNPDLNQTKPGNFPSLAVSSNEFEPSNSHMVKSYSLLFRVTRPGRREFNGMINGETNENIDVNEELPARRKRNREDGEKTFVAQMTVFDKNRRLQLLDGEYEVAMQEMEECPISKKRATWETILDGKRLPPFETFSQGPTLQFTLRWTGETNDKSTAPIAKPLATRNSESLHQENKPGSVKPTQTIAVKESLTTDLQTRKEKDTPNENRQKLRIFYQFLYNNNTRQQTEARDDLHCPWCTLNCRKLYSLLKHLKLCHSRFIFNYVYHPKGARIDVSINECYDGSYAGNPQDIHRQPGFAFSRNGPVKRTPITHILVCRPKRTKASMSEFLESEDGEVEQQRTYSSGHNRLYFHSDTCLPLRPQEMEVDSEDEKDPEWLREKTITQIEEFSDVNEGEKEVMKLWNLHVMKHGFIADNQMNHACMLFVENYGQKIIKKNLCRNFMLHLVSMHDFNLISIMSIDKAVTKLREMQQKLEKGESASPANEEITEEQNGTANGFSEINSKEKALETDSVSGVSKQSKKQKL
PRC2 core (EZH2-EED-SUZ12-RBBP4), sequence (O75530 whole entry, chain 3 of 4): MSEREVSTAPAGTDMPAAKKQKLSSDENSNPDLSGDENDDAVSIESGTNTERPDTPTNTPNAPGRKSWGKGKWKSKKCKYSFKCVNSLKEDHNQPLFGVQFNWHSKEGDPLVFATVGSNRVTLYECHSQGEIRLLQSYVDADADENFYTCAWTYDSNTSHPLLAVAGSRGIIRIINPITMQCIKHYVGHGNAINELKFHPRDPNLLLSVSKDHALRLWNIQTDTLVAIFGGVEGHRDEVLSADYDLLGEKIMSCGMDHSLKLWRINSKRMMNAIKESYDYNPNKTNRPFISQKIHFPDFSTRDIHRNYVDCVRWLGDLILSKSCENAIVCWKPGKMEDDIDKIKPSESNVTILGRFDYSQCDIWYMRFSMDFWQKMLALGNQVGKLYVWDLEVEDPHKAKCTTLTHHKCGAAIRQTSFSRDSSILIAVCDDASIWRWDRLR
PRC2 core (EZH2-EED-SUZ12-RBBP4), sequence (Q09028 whole entry, chain 4 of 4): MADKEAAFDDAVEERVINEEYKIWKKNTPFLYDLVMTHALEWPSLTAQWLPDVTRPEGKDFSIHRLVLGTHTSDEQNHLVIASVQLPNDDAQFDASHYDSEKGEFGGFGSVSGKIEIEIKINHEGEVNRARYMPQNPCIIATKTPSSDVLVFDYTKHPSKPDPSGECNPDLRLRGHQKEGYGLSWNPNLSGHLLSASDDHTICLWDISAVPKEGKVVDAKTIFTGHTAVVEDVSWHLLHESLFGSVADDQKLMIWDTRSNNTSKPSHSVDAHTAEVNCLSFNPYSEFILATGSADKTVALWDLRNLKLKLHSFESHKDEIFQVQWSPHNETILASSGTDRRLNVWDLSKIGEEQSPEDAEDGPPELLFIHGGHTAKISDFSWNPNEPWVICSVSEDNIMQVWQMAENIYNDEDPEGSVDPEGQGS

On to UUAGGGUUAGGGUUAGGGUUAGGG (structured_RNA) [G4 24 RNA], for which the Kd in [1] stood at 19.2 ± 2.7 nM; in [2], 60.5 ± 2.2 nM; in [3] it was 141 ± 8 nM; in data set [4] it was 82.4 ± 9.8 nM; in data set [5], 54.6 ± 3.8 nM; in data set [6], 124 ± 7 nM. In addition, the Kd in data set [7] turned out to be 93.7 ± 6.3 nM; in data set [8], 173 ± 7 nM; in [9] it was 34 ± 1.8 nM; in [10], 40.9 ± 3.9 nM; in data set [11], 102 ± 4 nM; in data set [12] it was 129 ± 6 nM.
